We go through one molecule from patent CN101228187A (UNIV RAMOT, dated 2008).

In the test the target is MAP-PrP, multiple antigen peptide presenting amino acids 144-153 of human prion protein (human). Nature of the test: ELISA (Fig. 9).

B1: F2 scFv (scFv)
scFv: VQLLESGGGLVQPGGSLRLSCAASGFTFSGYWMHWVRQAPGKGLEWVSEISGSGDSTHYGDSVKGRFTISRDNSKNTLYLQMNSLRAEDTAVYYCARGRNGSLDYWGQGTLVTVSSGSAGGGGSGGGGSGGGGSDIVLTQPPSASGTPGQRVTISCSGTSSNIGADYDVHWYQQLPGKAPKLLIYDNNKRPSGVSDRFSGSKSGTSASLAISGLRSEDEADYYCAAWDSSLSSVVFGGGTQLTV
notes: also called TAR1; scFv F2
As to B1, the binding result is recorded as “no binding”.
